Laboratory results as given in patent publication US20030059812.

Molecular target: 3H-histones isolated from murine erythroleukemia cells

B1: HDAC9a-FLAG (C-terminal FLAG-tagged HDAC9a, expressed from pFLAG-CMV-5b-HDAC9a, plasmid VR2) (protein)
chain: MHSMISSVDVKSEVPVGLEPISPLDLRTDLRMMMPVVDPVVREKQLQQELLLIQQQQQIQKQLLIAEFQKQHENLTRQHQAQLQEHIKELLAIKQQQELLEKEQKLEQQRQEQEVERHRREQQLPPLRGKDRGRERAVASTEVKQKLQEFLLSKSATKDTPTNGKNHSVSRHPKLWYTAAHHTSLDQSSPPLSGTSPSYKYTLPGAQDAKDDFPLRKTASEPNLKVRSRLKQKVAERRSSPLLRRKDGNVVTSFKKRMFEVTESSVSSSSPGSGPSSPNNGPTGSVTENETSVLPPTPHAEQMVSQQRILIHEDSMNLLSLYTSPSLPNITLGLPAVPSQLNASNSLKEKQKCETQTLRQGVPLPGQYGGSIPASSSHPHVTLEGKPPNSSHQALLQHLLLKEQMRQQKLLVAGGVPLHPQSPLATKERISPGIRGTHKLPRHRPLNRTQSAPLPQSTLAQLVIQQQHQQFLEKQKQYQQQIHMNKLLSKSIEQLKQPGSHLEEAEEELQGDQAMQEDRAPSSGNSTRSDSSACVDDTLGQVGAVKVKEEPVDSDEDAQIQEMESGEQAAFMQQPFLEPTHTRALSVRQAPLAAVGMDGLEKHRLVSRTHSSPAASVLPHPAMDRPLQPGSATGIAYDPLMLKHQCVCGNSTTHPEHAGRIQSIWSRLQETGLLNKCERIQGRKASLEEIQLVHSEHHSLLYGTNPLDGQKLDPRILLGDDSQKFFSSLPCGGLGVDSDTIWNELHSSGAARMAVGCVIELASKVASGELKNGFAVVRPPGHHAEESTAMGFCFFNSVAITAKYLRDQLNISKILIVDLDVHHGNGTQQAFYADPSILYISLHRYDEGNFFPGSGAPNEVRFISLEPHFYLYLSGNCIA
HDAC enzymatic activity (3H-acetic acid released from 3H-histones): HDAC9a-FLAG deacetylated 3H-acetyl-histones
